According to patent US20040001839A1, “Multimers - isolated molecules comprising epitopes containing sulfated moieties, antibodies to such epitopes, and uses thereof” (priority 2000, published 2004):

Experiments:
[1] = system: platelet-rich-plasma (PRP); experiment: Ristocetin-induced aggregation of platelet-rich plasma (scFv); assay type: cell-based, human; settings: scFv 25 μg/ml, 100% = ristocetin treatment
Procedure: The effect of Y1 (scFv) on aggregation of platelet-rich-plasma (PRP) was tested at various concentrations of Y1. PRP was pre-incubated with Y1 scFv, Y17 scFv, or a control sTM-1cFv for 4 min at 37° C. before being exposed to ristocetin, an inducer of platelet agglutination and aggregation. A reversible inhibitory effect was observed when scFv was added to PRP prior to the addition of ristocetin, and it was dose dependent.
Blood was collected into a tube containing 3.8% sodium citrate. Platelet-rich plasma was prepared by centrifugation at 250×g for 10 minutes.
For platelet aggregation studies, platelet rich plasma (PRP) and washed platelets were stirred at 500 rpm at 37° C. in whole blood Lumiaggregometer (Chronolog, Havertown, Pa.). The difference in light transmission through the platelet suspension and suspending medium was taken as 100% aggregation. The effect of Y1 on platelet aggregation was evaluated by addition of different concentration of Y1 before the addition of agonist, and the effect was recorded for four minutes.

[2] = system: RP-HPLC KG-1 membrane fraction; experiment: Western blot with Y1 on SDS-PAGE reducing gels, KG-1 membrane fraction after enzyme treatment; assay type: binding, human; settings: O-Sialo glycoprotein endopeptidase, 30′ at 37° C.
Text: Y1 ligand was further characterized using enzymatic treatments with proteases, glycanases, and […]; Western blotting with Y1, anti-CD42 antibodies, anti-CD162 antibodies and 181, immunoprecipitation using Y1 and anti-CD162 antibodies; FACS analysis using Y1 anti-CD162 antibodies; and sequencing.
The table below summarizes the biochemical experiments preformed to characterize and localize the Y1 binding site on KG-1 cells.
The nitrocellulose membrane was blocked using 5% skim milk for one hour at room temperature. The membrane was then washed 3 times for 5 minutes each with 0.05% Tween 20 in PBS at room temperature. The membrane was incubated with 5 μg/ml Y1-biotin (or 181-biotin) in 2% skim milk in PBS for one hour at room temperature. The membrane was then washed 3 times for 5 minutes each with cold 0.05% Tween 20 in PBS in the cold room (about 4 to about 10° C.). The membrane was then incubated in the cold room with a 1:1000 dilution of SAV-HRP (streptavidin-HRP) (at a final concentration of […]) in 2% skim milk, 0.05% Tween. The dilution was carried out at room temperature (about 25° C.), then the diluted SAV-HRP was cooled on ice for 10-15 minutes before use. The incubation was carried out for 1 hour with gentle shaking. After the incubation with SAV-HRP, the membrane was washed, as above. […]

[3] = system: Leukemia Cells; experiment: FACS of leukemia samples: anti-CD162 versus Y1; assay type: binding, human; settings: 12 patient samples
Procedure: Analysis of binding of scFv Y1 antibodies and anti-CD162 antibodies to diseased cells also illustrates that scFv Y1 has binding characteristics different from those of anti-CD162 antibodies. […] (Table F). Y1 binds to the leukemic cells in 10 of 12 samples. In contrast, anti-CD162 bound only 5 out of 12 samples. […] Thus, it may be concluded that, in leukemic cells, scFv Y1 binds to a ligand other than that recognized by anti-CD162.
Samples provided from hospitals. Patients sample 30 μl/tube. Add 5 μl /tube of CD33-APC (for AML) or CD19-APC (for B-CLL) or CD38-APC (for Multiple Myeloma). Add 5 μl/tube of CD45-PerCp and 5 μl of scFv-Y1 or control scFv-N31 or CD162-PE (KPL1). Incubate tubes 30 minutes at 4° C. with low shaking. Wash by adding 2 ml PBS and spin 5 minutes at 1200 rpm. Discard supernatant.
For a one step assay continue with the lysis step:
Add 500 μl BD Lysine solution diluted 1:10 with ddH2O (300 μl to patient sample). Vortex at high speed and incubate 12 minutes at 4° C. Wash as above. Discard supernatant. And add 500 μl PBS. The samples are read in the FACS using blood sample acquisition setup according to international standards.
For two or more assays: working buffer is PBS+1% BSA+0.05% sodium azide. Incubations and wash as above.
Lysis of the red blood cells is the final step in the assay, followed by resuspension with 500 μl PBS.

[4] = system: Jurkat cells; experiment: FACS binding to Jurkat cells (IgG-Y1, scFv-Y1, diabodies, triabodies); parameters: species or system human; settings: 1 μg scFv-Y1 versus 5 ng IgG-Y1, two-step staining
Procedure: Binding experiments were performed to determine the level of binding of the IgG-Y1 molecule compared to the binding level of the scFv-Y1 molecule. A two-step staining procedure was employed, wherein 5 ng of IgG-Y1 were reacted with both RAJI cells (negative control, FIG. 44) and Jurkat cells (Y1 positive cells, FIG. 44). For detection, PE-labeled goat anti-human IgG was used. Similarly, 1 μg of scFv-Y1 was reacted with Jurkat cells (FIG. 44), and PE-labeled rabbit anti-scFv was used for detection.
FACS analysis was performed on Jurkat cells using a “three step staining procedure.” First, crude extracts or purified unlabeled scFv are stained, then mouse anti-myc antibodies, and finally, FITC- or PE-conjugated anti-mouse antibodies. FACS analysis requires 5-8×10^5 cells, which have been Ficoll-purified and resuspended in PBS+1% BSA. Binding was carried out for 1 hour at 4° C. After each step, cells were washed and resuspended in PBS+1% BSA. After the final staining step, cells were fixed by re-suspending in PBS, 1% BSA, 2% formaldehyde, and then read by FACS (Becton-Dickinson).
The binding of Y1-scFv was compared to that of diabodies and triabodies.

[5] = target: T1, natural human platelet derived glycocalicin (Homo sapiens, UniProt P07359); experiment: Western blot on natural platelet glycocalicin; assay type: binding; settings: semi-purified human platelet derived glycocalicin
T1 construct: glycocalicin (soluble, extracellular fragment of GPIbα); from tissue; host or cells: human platelets
Procedure: (§1) The DNA fragment encoding for glycocalicin (GC, amino acid 1 to amino acid 493 of GPIbα) was cloned into an IPTG inducible prokaryotic vector cassette. E. coli (BL21 DE3) cells harboring the newly constructed plasmid were grown at 37° C. to O.D. 0.7-0.8, than at 37° C. for 3 hours for in the presence of IPTG for induction.
(§2) SDS-polyacrylamide gel loaded either with semi-purified human platelet derived glycocalicin (“GC”) or with E. coli cell lysates (“total”) derived from induced and non-induced cells were analyzed. Western blot analysis was performed with biotinylated Y1-scFv, polyclonal rabbit anti-human glycocalicin antibody, commercially available mouse anti-human CD42 monoclonal antibody (SZ2 Immunotech, PM640 Serotec, HIP1 Pharmigen, AN51 DAKO), and polyclonal antibody against the N-terminus of GPIbα (Sc-7071, Santa Cruz).

[6] = target: T2, recombinant bacterial derived glycocalicin (Homo sapiens, UniProt P07359); experiment: Western blot on E. coli recombinant glycocalicin; assay type: binding; settings: E. coli cell lysates, IPTG induced
T2 construct: glycocalicin (GC, amino acid 1 to amino acid 493 of GPIbα); made in house; host or cells: E. coli BL21 DE3, total cell lysate
Procedure: as §1, §2

B1: Y1 scFv: fully human scFv clone binding platelets and AML cells; SEQ ID NO:25, heavy chain CDR3 SEQ ID NO:8 (protein, listed as Homo sapiens)
scFv: MKYLLPTAAAGLLLLAAQPAMAEVQLVESGGGVVRPGGSLRLSCAASGFTFDDYGMSWVRQAPGKGLEWVSGINWNGGSTGYADSVKGRFTISRDNAKNSLYLQMNSLRAEDTAVYYCARMRAPVIWGQGTLVTVSRGGGGSGGGGSGGGGSSELTQDPAVSVALGQTVRITCQGDSLRSYYASWYQQKPGQAPVLVIYGKNNRPSGIPDRFSGSSSGNTASLTITGAQAEDEADYYCNSRDSSGNHVVFGGGTKLTVLGAAAEQKLISEEDLNGAA
- % aggregation [1]: 87%
- Reactivity with Y1 [2]: Reactivity
- samples in which the antibody binds the leukemic cells [3]: 10 of 12
- more molecules needed for a level of detection similar to IgG-Y1 [4]: approximately 10^3 fold
- recognition in Western blot [5]: recognized
- recognition in Western blot [6]: did not recognize
